*1 amine or outer side, *2 acyl side, *3 side chain or, on linkers, in order; H or OH if unused. Bridges are numbered along the chain shown (N, C = ends). Primed or numbered codes have the meaning given here. [ ]: non-standard residue; d: D form. N(2-mercaptoethyl)Gly = O=C(CN(CCS[*:3])[*:1])[*:2]; FITC′ = fluorescein isothiocyanate; Orn = NCCC[C@H](N)C(=O)O; Aib = CC(C)(N)C(=O)O; GABA = NCCCC(=O)O
Columns and labels:
[1] = molecular target: human somatostatin receptor subtype SSTR5 (human) (UniProt P35346); assay: FACS, transfected HEK-293 cells; normalised to Compound 1
human somatostatin receptor subtype SSTR5 (human), sequence (P35346 whole entry): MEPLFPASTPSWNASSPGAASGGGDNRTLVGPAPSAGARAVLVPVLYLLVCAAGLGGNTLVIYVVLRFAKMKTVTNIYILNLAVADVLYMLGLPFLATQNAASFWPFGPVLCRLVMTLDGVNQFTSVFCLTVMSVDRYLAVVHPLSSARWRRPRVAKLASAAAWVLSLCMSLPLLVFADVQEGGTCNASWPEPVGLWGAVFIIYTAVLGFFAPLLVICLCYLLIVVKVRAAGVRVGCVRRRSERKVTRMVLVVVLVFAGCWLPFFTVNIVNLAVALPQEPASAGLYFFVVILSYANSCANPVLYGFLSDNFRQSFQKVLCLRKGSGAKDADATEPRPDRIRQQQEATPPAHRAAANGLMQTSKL

[2] = molecular target: human somatostatin receptor subtype SSTR4 (human) (UniProt P31391); assay: as above
human somatostatin receptor subtype SSTR4 (human), sequence (P31391 whole entry): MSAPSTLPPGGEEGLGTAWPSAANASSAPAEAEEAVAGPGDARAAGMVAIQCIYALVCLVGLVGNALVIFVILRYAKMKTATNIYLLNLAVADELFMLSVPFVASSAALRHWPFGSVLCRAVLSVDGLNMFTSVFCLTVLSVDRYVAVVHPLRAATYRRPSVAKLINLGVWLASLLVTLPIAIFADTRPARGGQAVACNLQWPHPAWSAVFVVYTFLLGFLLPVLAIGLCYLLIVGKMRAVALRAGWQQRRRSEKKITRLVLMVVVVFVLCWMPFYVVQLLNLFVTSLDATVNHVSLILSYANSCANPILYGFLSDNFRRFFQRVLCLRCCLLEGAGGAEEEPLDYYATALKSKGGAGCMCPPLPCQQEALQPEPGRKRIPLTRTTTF

[3] = molecular target: human somatostatin receptor subtype SSTR2 (human) (UniProt P30874); assay: as above
human somatostatin receptor subtype SSTR2 (human), sequence (P30874 whole entry): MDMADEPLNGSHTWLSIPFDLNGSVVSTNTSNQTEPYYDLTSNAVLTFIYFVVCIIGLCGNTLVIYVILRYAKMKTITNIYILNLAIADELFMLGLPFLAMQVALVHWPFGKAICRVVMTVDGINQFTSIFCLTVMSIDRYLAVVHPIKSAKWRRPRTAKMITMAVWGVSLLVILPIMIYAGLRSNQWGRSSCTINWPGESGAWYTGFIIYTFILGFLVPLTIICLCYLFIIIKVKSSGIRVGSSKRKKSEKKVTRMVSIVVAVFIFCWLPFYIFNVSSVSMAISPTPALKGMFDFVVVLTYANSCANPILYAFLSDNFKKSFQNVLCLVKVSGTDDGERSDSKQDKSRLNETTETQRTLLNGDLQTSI

[4] = molecular target: human somatostatin receptor subtype SSTR3 (human) (UniProt P32745); assay: as above
human somatostatin receptor subtype SSTR3 (human), sequence (P32745 whole entry): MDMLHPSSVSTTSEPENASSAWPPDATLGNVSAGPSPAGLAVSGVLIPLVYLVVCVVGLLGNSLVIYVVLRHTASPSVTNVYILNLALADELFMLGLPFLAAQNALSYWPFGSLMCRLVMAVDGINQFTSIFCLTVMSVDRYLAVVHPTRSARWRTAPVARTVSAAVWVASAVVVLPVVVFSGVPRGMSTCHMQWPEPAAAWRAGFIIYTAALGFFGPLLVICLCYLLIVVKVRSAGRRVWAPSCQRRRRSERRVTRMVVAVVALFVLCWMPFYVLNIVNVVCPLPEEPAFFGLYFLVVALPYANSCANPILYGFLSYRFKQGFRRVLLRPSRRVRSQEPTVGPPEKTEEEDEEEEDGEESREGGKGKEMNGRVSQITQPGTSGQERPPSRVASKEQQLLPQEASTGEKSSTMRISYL

[5] = molecular target: human somatostatin receptor subtype SSTR1 (human) (UniProt P30872); assay: as above
human somatostatin receptor subtype SSTR1 (human), sequence (P30872 whole entry): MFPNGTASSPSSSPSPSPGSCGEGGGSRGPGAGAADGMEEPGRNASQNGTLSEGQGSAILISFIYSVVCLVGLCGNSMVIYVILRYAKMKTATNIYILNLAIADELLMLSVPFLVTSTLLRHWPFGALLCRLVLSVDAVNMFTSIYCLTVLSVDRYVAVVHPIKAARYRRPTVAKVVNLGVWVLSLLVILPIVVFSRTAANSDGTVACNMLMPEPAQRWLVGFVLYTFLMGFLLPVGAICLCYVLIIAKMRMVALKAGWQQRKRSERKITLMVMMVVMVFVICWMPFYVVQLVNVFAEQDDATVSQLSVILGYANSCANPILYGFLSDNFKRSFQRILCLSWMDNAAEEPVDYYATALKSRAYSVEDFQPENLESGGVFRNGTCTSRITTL

[6] = molecular target: human somatostatin receptor subtype SSTR5 (human) (UniProt P35346); assay: FACS, transfected HEK-293 cells; row normalised to highest
[7] = molecular target: human somatostatin receptor subtype SSTR4 (human) (UniProt P31391); assay: as above
[8] = molecular target: human somatostatin receptor subtype SSTR2 (human) (UniProt P30874); assay: as above
[9] = molecular target: human somatostatin receptor subtype SSTR3 (human) (UniProt P32745); assay: as above
[10] = molecular target: human somatostatin receptor subtype SSTR1 (human) (UniProt P30872); assay: as above
[11] = molecular target: human somatostatin receptor subtype SSTR5 (human) (UniProt P35346); assay: FACS, transfected HEK-293 cells
[12] = molecular target: human somatostatin receptor subtype SSTR4 (human) (UniProt P31391); assay: FACS, transfected HEK-293 cells
[13] = molecular target: human somatostatin receptor subtype SSTR2 (human) (UniProt P30874); assay: FACS, transfected HEK-293 cells
[14] = molecular target: human somatostatin receptor subtype SSTR3 (human) (UniProt P32745); assay: FACS, transfected HEK-293 cells
[15] = molecular target: human somatostatin receptor subtype SSTR1 (human) (UniProt P30872); assay: FACS, transfected HEK-293 cells

Row | Binder | Binding affinity relative to Compound 1 (% of Compound 1) [1] | Binding affinity relative to Compound 1 (% of Compound 1) [2] | Binding affinity relative to Compound 1 (% of Compound 1) [3] | Binding affinity relative to Compound 1 (% of Compound 1) [4] | Binding affinity relative to Compound 1 (% of Compound 1) [5] | Adjusted binding affinity [6] | Adjusted binding affinity [7] | Adjusted binding affinity [8] | Adjusted binding affinity [9] | Adjusted binding affinity [10] | Relative binding affinity [11] | Relative binding affinity [12] | Relative binding affinity [13] | Relative binding affinity [14] | Relative binding affinity [15]
1 | {FITC′-GABA}-[dF]RCY[dW]KTF[N(2-mercaptoethyl)Gly]-NH2 (disulfide 3-9) [Compound 6] | 2 | 7 | 23 | 132 | 0 | 0.02 | 0.07 | 0.07 | 1 | 0 | 0.5% | 1.5% | 1.5% | 22.5% | –
2 | XXFWXKTFX (FITC-GABA-DPhe-HCys*-Phe-Trp-DTrp-Lys-Thr-Phe-GlyS2*-NH2 (* = S-S bond; HCys = homocysteine; GlyS2 = N-thioethyl glycine; C-terminal amide)) [Compound 11] | 144 | 129 | – | – | – | 1 | 0.71 | – | – | – | 41% | 29% | – | – | –
3 | {FITC′-GABA}-[dF]CRFF[dW]KTF[N(2-mercaptoethyl)Gly]-NH2 (disulfide 2-10) [Compound 8] | 96 | 140 | 69 | 68 | 78 | 0.87 | 1 | 0.14 | 0.37 | 0.08 | 27.5% | 31.5% | 4.5% | 11.5% | 2.6%
4 | XCFWXKTFX (FITC-GABA-DPhe-Cys*-Phe-Trp-DTrp-Lys-Thr-Phe-GlyS2*-NH2 (* = S-S bond; GlyS2 = N-thioethyl glycine; FITC-GABA on the N-terminal amine; C-terminal amide)) [Compound 1] | 100 | 100 | 100 | 100 | 100 | 1 | 0.79 | 0.23 | 0.6 | 0.11 | 28.5% | 22.5% | 6.5% | 17% | 3%
5 | {FITC′-GABA}-[dF]CY[dW][Orn]TF[N(2-mercaptoethyl)Gly]-NH2 (disulfide 2-8) [Compound 7] | 4 | 7 | 15 | 12 | 0 | 0.5 | 0.75 | 0.5 | 1 | 0 | 1% | 1.5% | 1% | 2% | –
6 | {FITC′-GABA}-[dF]CYW[dW]KTF[N(2-mercaptoethyl)Gly]-NH2 (disulfide 2-9) [Compound 4] | 4 | 36 | 123 | 141 | 100 | 0.4 | 0.33 | 0.33 | 1 | 0.13 | 9.3% | 13.3% | 4.3% | 15.7% | 3.6%
7 | XCFWXXTFX (FITC-GABA-DPhe-Cys*-Phe-Trp-DTrp-Orn-Thr-Phe-GlyS2*-NH2 (* = S-S bond; GlyS2 = N-thioethyl glycine; Orn = ornithine; C-terminal amide)) [Compound 3] | 33 | 59 | 66 | 92 | 120 | 0.59 | 0.85 | 0.27 | 1 | 0.23 | 9.3% | 13.3% | 4.3% | 15.7% | 3.6%
8 | {FITC′-GABA}-[dF]RCF[dW]KTF[N(2-mercaptoethyl)Gly]-NH2 (disulfide 3-9) [Compound 2] | 18 | 18 | 77 | 24 | 167 | 1 | 0.8 | 1 | 0.8 | 1 | 5% | 4% | 5% | 4% | 5%
9 | {FITC′-GABA}-[dF]CFW[dW]RTF[N(2-mercaptoethyl)Gly]-NH2 (disulfide 2-9) [Compound 15] | 26 | 40 | 77 | 79 | 133 | 0.56 | 0.67 | 0.37 | 1 | 0.3 | 7.5% | 9% | 5% | 13.5% | 4%

The remaining lines, values ahead:

Row | Binding affinity relative to Compound 1 (% of Compound 1) [1] | Binding affinity relative to Compound 1 (% of Compound 1) [2] | Binding affinity relative to Compound 1 (% of Compound 1) [3] | Binding affinity relative to Compound 1 (% of Compound 1) [4] | Binding affinity relative to Compound 1 (% of Compound 1) [5] | Adjusted binding affinity [6] | Adjusted binding affinity [7] | Adjusted binding affinity [8] | Adjusted binding affinity [9] | Adjusted binding affinity [10] | Relative binding affinity [11] | Relative binding affinity [12] | Relative binding affinity [13] | Relative binding affinity [14] | Relative binding affinity [15] | Binder
10 | 7 | 13 | – | – | – | 0.67 | 1 | – | – | – | 2% | 3% | – | – | – | XCFWXXTFX (FITC-GABA-DPhe-Cys*-Phe-Trp-DTrp-LysAc-Thr-Phe-GlyS2*-NH2 (* = S-S bond; LysAc = acetyllysine; GlyS2 = N-thioethyl glycine; C-terminal amide)) [Compound 14]
11 | 0 | 4 | 15 | 18 | 0 | 0 | 0.33 | 0.33 | 1 | 0 | – | 1% | 1% | 3% | – | {FITC′-GABA}-[dF]RCF[dW][Orn]TF[N(2-mercaptoethyl)Gly]-NH2 (disulfide 3-9) [Compound 5]
12 | 32 | 18 | 0 | 35 | 33 | 1 | 0.44 | 0 | 0.67 | 0.11 | 9% | 4% | – | 6% | 1% | {FITC′-GABA}-[dF]CFW[dW][Aib]TF[N(2-mercaptoethyl)Gly]-NH2 (disulfide 2-9) [Compound 13]
13 | 25 | 20 | 38 | 71 | 0 | 0.58 | 0.38 | 0.21 | 1 | 0 | 7% | 4.5% | 2.5% | 12% | – | XCFWXXTFX (FITC-GABA-DPhe-Cys*-Phe-Trp-DTrp-HomoLys-Thr-Phe-GlyS2*-NH2 (* = S-S bond; HomoLys = homolysine; GlyS2 = N-thioethyl glycine; C-terminal amide)) [Compound 16]
